One block for each substance: values may come before it.
Experiments:
[1] = target: ePGK3, expressed in U-2 OS cells (yeast) (UniProt P00560); experiment: FRET or BRET; in living U-2 OS cells co-transfected with both proteins; only cells with about 1:1 expression; epifluorescence microscope, infrared laser temperature ramp 19-46°C; average of 15-30 cells
[2] = target: ePGK2, expressed in U-2 OS cells (yeast) (UniProt P00560); experiment: as above
[3] = target: FRET-PGK1 (PGK1 labeled with mEGFP at the N-terminus and mCherry at the C-terminus) (yeast) (UniProt P00560)
[4] = target: mEGFP (free), expressed in U-2 OS cells; experiment: FRET or BRET; in living U-2 OS cells co-transfected with both proteins; only cells with about 1:1 expression; epifluorescence microscope, infrared laser temperature ramp 19-46°C; average of 15-30 cells

T0 (binding temperature midpoint) [1]: 37.1 °C
overall E FRET change [1]: 8%
T0 (binding temperature midpoint) [2]: 39.1 °C
overall E FRET change [2]: 8%
Substance: mHsp70 (Hsp70 labeled by mCherry at the C-terminus), expressed in U-2 OS cells (from UniProt P0DMV8 1-641) (natural protein)

folding efficiency of GuHCl-denatured efPGK1 in stopped flow refolding (intramolecular FRET) with 100 μM Hsp70 and 22.5 μM Hsp40, 2 mM ATP; 47% without Hsp70 [3]: 57%
Substance: Hsp70 (as used in the stopped flow PGK refolding assay) (from UniProt P0DMV8 1-641) (natural protein)

E FRET change [4]: 2%
Substance: mCherry (free), expressed in U-2 OS cells
